Experimental data reported in patent publication US9364516B2, “Treatment of fibrosis-related disorders using fibronectin binding proteins and polypeptides” (priority 2010, dated 2016).

How the values were obtained:
[1] = tested on: left carotid artery of FVB mice; assay: Carotid ligation flow-induced vascular remodeling, morphometry; type: in vivo, mouse
Method: Both sexes of FVB transgenic mice were used for the carotid ligation experiments, since no significant differences in their modeling response were reported between male and female mice. All procedures were approved by the University of Rochester Animal Care Committee, and were performed in accordance with the guidelines of the National Institutes of Health for the care and use of laboratory animals.
Digital images of Verhoeff-van Gieson elastic stained cross-sections were captured and morphometric analysis was performed using Image-Pro Plus software (Media Cybernetics, Md.). The circumferences of the lumen, internal elastic lamina (IEL) and external elastic lamina (EEL) in the sections were identified using the automatic trace mode in Image-Pro. The accuracy of the automated tracing was verified by visual inspection of the images. Cross-sectional areas of the lumen, neointima, media, adventitia, and the area encompassed by the EEL were measured. Vessel compartment volumes were calculated as described (Intengan et al., “Vascular Remodeling in Hypertension: Roles of Apoptosis, Inflammation, and Fibrosis,” Hypertension 38:581-587 (2001), which is hereby incorporated by reference in its entirety). Briefly, starting with the carotid bifurcation as the origin, a series of cross-sections of 5 μm were cut every 200 μm through the first mm length of the carotid artery. Morphometric analysis was performed at each point, and the average of each division was calculated, summed, and reported as the volume.
Blood flow in the left carotid artery of 10-week-old FVB/NJ (FVB) mice was reduced by ligating the external and internal carotid arterial branches as described (Korshunov et al., “Flow-Induced Vascular Remodeling in the Mouse: A Model for Carotid Intima-Media Thickening,” Arterioscler. Thromb. Vasc. Biol. 23:2185-2191 (2003), which is hereby incorporated by reference in its entirety). Mice were anesthetized with an intraperitoneal injection of ketamine (80 mg/kg) and xylazine (5 mg/kg) as described in the above-cited referenced. The left common carotid artery was dissected free of the surrounding connective tissue and 50 μL of F-127 pluronic gel (BASF) containing 20 μmol/L pUR4 or III-11C was applied around the carotid artery. Animals were separated into 5 groups containing 5 to 10 animals each: (1) sham-operated, in which the branches of the left carotid artery were exposed and dissected out, but not ligated; (2) ligation; (3) ligation with pluronic gel; (4) ligation with pluronic gel containing III-11C; (5) ligation with pluronic gel containing pUR4.
Blood flow in the left and right common carotid artery was measured using an ultrasonic transit-time volume flowmeter (Transonic Systems) before sacrifice. Animals were perfusion-fixed with 10% formalin 7 or 14 days after surgery. The common carotid arteries were harvested and embedded in paraffin. Cross-sections of 5 μm were cut from the bifurcation every 200 μm through the first mm length of the carotid artery as described (Korshunov et al., “Flow-Induced Vascular Remodeling in the Mouse: a Model for Carotid Intima-Media Thickening,” Arterioscler. Thromb. Vasc. Biol. 23:2185-2191 (2003), which is hereby incorporated by reference in its entirety). Sections were stained with Verhoeff-van Gieson elastic stain, and then subjected to morphometric analysis. […]

Rat aortic SMCs = assay: Fibronectin and collagen I deposition in cultured SMCs (immunostaining); type: cell-based; settings: 500 nM peptide, 3 days, serum containing media
Method: FIGS. 1A-1I depict the effect of pUR4 on fibronectin and collagen I deposition in smooth muscle cells (SMCs). Rat aortic SMCs were grown in serum containing media in the absence (FIGS. 1A-1C) or presence of 500 nM pUR4 (FIGS. 1D-1F) or control III-11C (FIGS. 1G-1I) peptides for 3 days. Cell were fixed, and then incubated with a polyclonal antibody to fibronectin (FIGS. 1A, 1D, and 1G) or collagen I (FIGS. 1B, 1E, and 1H). Bar, 20 μm.
Rat aortic smooth muscle cells (RASM) were obtained from Cell Applications (San Diego, Calif.) and maintained in serum containing media (Cell Applications). SMC were used at passages 4-6.
Previous data has shown that fibronectin regulates the deposition of other proteins into the ECM, including type I collagen (Sottile et al., “Fibronectin Polymerization Regulates the Composition and Stability of Extracellular Matrix Fibrils and Cell-Matrix Adhesions,” Mol. Biol. Cell. 13:3546-3559 (2002), which is hereby incorporated by reference in its entirety). […] However, there was a trend toward decreased fibronectin and collagen I mRNA in the carotid artery of animals treated with pUR4 in comparison with control peptide-treated animals (Table 3).

human saphenous veins = assay: Ex vivo cultured human saphenous veins, intimal thickening; settings: 15 μM, 14 days culture in 10% FBS/M199
Method: Saphenous veins were cut into 0.5 cm segments, and processed immediately (●) or cultured in 10% FBS/M199 containing 15 μM control III-11c peptide (▪) or pUR4 (▴) at 37° C. for 14 days. Veins were fixed, paraffin embedded, sectioned, and stained. Morphometric analysis was performed on six randomly chosen sections using Image-Pro Plus software. The intima/media ratio was determined by dividing intima area by media area. Paired student t-test was used to analyze the data. Data are expressed as mean±S.E.M. *p<0.05.
Human saphenous veins cultured in serum containing media develop intimal hyperplasia after 14 days in culture (Soyombo et al., “Intimal Proliferation in an Organ Culture of Human Saphenous Vein,” Am J Pathol. 137(6):1401-1410 (1990); Angelini et al., “Smooth Muscle Cell Proliferation in Response to Injury in an Organ Culture of Human Saphenous Vein,” Eur J Vasc Surg. 5(1):5-12 (1991); and Slomp et al., “Nature and Origin of the Neointima in Whole Vessel Wall Organ Culture of the Human Saphenous Vein,” Virchows Arch. 428(1):59-67 (1996), which are hereby incorporated by reference in their entirety). This system thus provides an ex vivo model system for studying mechanisms that lead to intimal hyperplasia that has distinct advantages over in vitro culture systems. […]

[2] = vessel compartments analyzed separately

B1: pUR4: 49-mer peptide derived from the bacterial F1 adhesin, His tagged, SEQ ID NO:1; class I fibronectin polymerization inhibitor (peptide)
chain: MRGSHHHHHHGSKDQSPLAGESGETEYITEVYGNQQNPVDIDKKLPNETGFSGNMVETEDTKLN
modifications: His tag; Bacterial adhesin derived peptide pUR4
increase in lumen volume after ligation ([1]; 20 μmol/L in pluronic gel, periadventitial): prevented
carotid (vascular) remodeling ([1]; 20 μmol/L in pluronic gel, periadventitial, 14 days after ligation): dramatically reduced
effect on IMT at 7 days ([1]; 7 days after ligation): no statistical effect
inhibition of adventitial thickening compared to III-11C ([1]; 14 days after ligation): 38%
reduction of extent of IMT (intima-media thickening) vs control peptide ([1]; 14 days after ligation): 40%
remodeling index, pUR4 vs III-11C ([1]; mouse, in vivo): not different
outward remodeling (EEL volume) ([1]; no difference in EEL volume vs shams 7 days post ligation): prevented
reduction of intima thickening [1, 2]: 63%
reduction of media thickening [1, 2]: 27%
deposition of endogenous collagen I into matrix fibrils (Rat aortic SMCs): inhibited
deposition of endogenous fibronectin into the ECM (Rat aortic SMCs): inhibited
intima/media ratio (human saphenous veins): decreases
